# Data published in paper doi:10.1101/2025.05.16.654433.
# B1: APE-1::GFP::3xflag (endogenous APE-1 tagged with 3xflag and GFP) [C. elegans] / HaloTag::GSP-2 (endogenously HaloTagged GSP-2 labeled with JF646) [modified: far-red dye JF646 on the HaloTag; far-red dye JF646 on the HaloTag] … (parent)
# chain 1: MVTTSSGGGIGYPANNGVTQVSLIHSSDSVRTVSTAPIYRPTSSMASTMAHKSSTAPFISANQRMSKPPVRVVAQPPPPHPQALSQQYHQQNPMMMYSAPNTRPHVIPTMQVQPTMAAQIKRNNPVNAQFQNPSEMIADYGVKPQSVEMVQRVRAVRRQVADEETELRRLRELEHETAQLQNKNYGRERELNVQGSMLKEAQLELRNASMRAQSLNKHLEEMYRRRQTAAAAALVEQRKMQQHQILLARAANQVSTQEVIRPRASVEPFQVNNTQQQQPSPQMMKSEEFSEKRDLNGQTGSYDAIDGSGDHQKIPTEPSYLAPCKENQQKYSELSKMASTDPHSNHSSPSTSSQKAPTLITFSPPSFEQKINSSTMTRDSPFVERPTSFGDSLDESRLRSGKTDLVSLRSDSLKATKRRSWAASEGTSMSEAEMIHRLLDEQRRGRSHFIPQLPTSQEEPSAITSETYAEEVVNSESKQVATSSDSTNNLELPTEQMVLGSDTTTEEDASSCSTRSDDGQNLEMEVAIERRTVKGILRRPNEKMNKGRIEFDPLALLLDAALEGELDLVRSSASKLTDVSQANDEGITALHNAICAGHYEIVRFLIENDADVNAQDSDGWTPLHCAASCNNLPMVRQLVEGGGCVLASTLSDMETPVEKCEEDEDGYDGCLKYLSAAHNSTGSINTGKVYAAYGYEAAFEDELSFDAGDELTVIEKDKVDKNWWTCEKNNGEKGQVPRTYLALYPSLKYRKKLNFVMFDLPLESNNNVE
# chain 2: MDVEKLNLDNIISRLLEVRGSKPGKNVQLTESEIKGLCQKSREIFLSQPILLELEAPLKICGDVHGQYYDLLRLFEYGGFPPESNYLFLGDYVDRGKQSLETICLLLAYKIKYPENFFLLRGNHECASINRIYGFYDECKRRYNIKLWKTFTDCFNCLPVAAIIDEKIFCCHGGLSPDLQSMEQIRRIMRPTDVPDQGLLCDLLWSDPDKDVTGWGENDRGVSFTFGPEVVAKFLHKHDLDLICRAHQVVEDGYEFFAKRQLVTLFSAPNYCGEFDNAGSMMTVDETLMCSFQILKPADKKKYPYGAGGVGSNRPVTPPRNAPAAQPKKGAKK
# Variants of: B1
# Assay: single molecule photobleaching analysis (TIRF microscopy) on anti-flag functionalized coverslips
# Conditions: with HaloTag::GSP-2 (endogenously HaloTagged GSP-2 labeled with JF646) [modified: far-red dye JF646 on the HaloTag, whole worm lysates, HaloTag::GSP-2 labeled with JF646, p = 0.008 vs APE-1, read off a plot
row,screen value [%],Variant
1,34,chain 1 N583K

# Same assay, conditions: with HaloTag::GSP-2 (endogenously HaloTagged GSP-2 labeled with JF646) [modified: far-red dye JF646 on the HaloTag, whole worm lysates, HaloTag::GSP-2 labeled with JF646, p=0.531 vs APE-1, read off a plot
row,screen value [%],Variant
1,38,chain 1 H591Y
